B1: scFv #34 (VH #34, IgG; VL III43; murine HCDR3 F19) (scFv)
scFv: QVQLQQSGAEVKKPGSSVKVSCKASGGTFSTHTINWVRQAPGQGLEWMGGIAPMFGTANYAQKFQGRVTITADKSTSTAYMEMSSLRSDDTAVYYCARRRIAYGYDEGHAMDYWGQGTLVTVSSASTKGPKLEEGEFSEARVDIQMTQSPSSLSASTGDRVTITCRASQDISSYLAWYQQAPGKAPHLLMSGATTLQTGVPSRFSGSGSGTDFTLTISSLQAEDVAVYYCQQYYRTPFTFGQGTKLEIKRTVAAPSVFAA
notes: Humanised monovalent scFv, detected through the c-myc tag with 9E10; also called clone #34; VH34YOL III43; not shown: c-myc and HIS6 tags (pOPE101), or pIII in the screening ELISA
B2: scFv #18 (VH #18, IgG; VL III43; murine HCDR3 F19) (scFv)
scFv: QVQLVQSGAELKKPGSSMKVSCKASGDTFSTYSINWVRQAPGQGLEWMGVINPSGGSTSYAQKFQGRVTMTRDTSTSTVYMELSSLRSEDTAVYYCARRRIAYGYDEGHAMDYWGQGTLVTVSSASTKGPKLEEGEFSEARVDIQMTQSPSSLSASTGDRVTITCRASQDISSYLAWYQQAPGKAPHLLMSGATTLQTGVPSRFSGSGSGTDFTLTISSLQAEDVAVYYCQQYYRTPFTFGQGTKLEIKRTVAAPSVFAA
notes: Humanised monovalent scFv, detected through the c-myc tag with 9E10; also called clone #18; VH18 YOL III43; not shown: c-myc and HIS6 tags (pOPE101), or pIII in the screening ELISA

Target: T1, tetanus toxoid (UniProt P04958 2-1315)
T1 construct: also called TTX
Assay: ELISA, wells coated with FAP or irrelevant Ag as for the chimeric scFv

T1 sequence (P04958 2-457 limits assumed, chain 1 of 2): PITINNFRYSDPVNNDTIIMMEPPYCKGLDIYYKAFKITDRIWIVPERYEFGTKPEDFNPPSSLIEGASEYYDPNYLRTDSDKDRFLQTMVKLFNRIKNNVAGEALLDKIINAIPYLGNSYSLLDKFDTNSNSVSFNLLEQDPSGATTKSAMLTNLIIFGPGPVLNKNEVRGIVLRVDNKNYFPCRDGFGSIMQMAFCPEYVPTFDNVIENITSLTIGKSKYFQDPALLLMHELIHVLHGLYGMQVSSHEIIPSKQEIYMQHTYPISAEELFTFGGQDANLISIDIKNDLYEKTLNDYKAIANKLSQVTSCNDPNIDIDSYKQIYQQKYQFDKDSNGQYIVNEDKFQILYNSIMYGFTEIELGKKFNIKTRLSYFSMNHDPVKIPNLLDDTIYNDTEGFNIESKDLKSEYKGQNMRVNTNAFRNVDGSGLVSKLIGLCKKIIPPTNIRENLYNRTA
T1 sequence (P04958 458-1315 limits assumed, chain 2 of 2): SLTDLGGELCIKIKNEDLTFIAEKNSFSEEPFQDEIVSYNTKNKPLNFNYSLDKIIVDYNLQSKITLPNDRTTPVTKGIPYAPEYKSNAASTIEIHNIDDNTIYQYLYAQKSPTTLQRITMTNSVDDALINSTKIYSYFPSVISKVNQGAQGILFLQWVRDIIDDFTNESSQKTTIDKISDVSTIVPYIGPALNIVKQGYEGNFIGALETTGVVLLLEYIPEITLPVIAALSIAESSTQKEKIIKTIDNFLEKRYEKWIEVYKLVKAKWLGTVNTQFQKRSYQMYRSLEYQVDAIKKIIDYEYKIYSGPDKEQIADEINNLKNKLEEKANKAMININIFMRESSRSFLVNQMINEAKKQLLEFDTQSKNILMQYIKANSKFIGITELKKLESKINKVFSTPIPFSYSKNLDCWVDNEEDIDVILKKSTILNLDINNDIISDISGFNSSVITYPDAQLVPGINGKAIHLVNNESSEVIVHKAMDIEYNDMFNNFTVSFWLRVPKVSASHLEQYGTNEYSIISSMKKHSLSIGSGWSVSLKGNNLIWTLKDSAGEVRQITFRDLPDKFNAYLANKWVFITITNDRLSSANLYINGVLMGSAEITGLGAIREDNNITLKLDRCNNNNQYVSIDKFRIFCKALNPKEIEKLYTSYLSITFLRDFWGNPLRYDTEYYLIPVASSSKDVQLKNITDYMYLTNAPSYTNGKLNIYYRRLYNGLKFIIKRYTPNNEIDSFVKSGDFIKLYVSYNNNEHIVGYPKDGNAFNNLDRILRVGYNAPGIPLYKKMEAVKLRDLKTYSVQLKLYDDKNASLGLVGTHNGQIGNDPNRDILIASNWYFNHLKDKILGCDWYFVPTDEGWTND

Binder	binding result
B1	no binding
B2	no binding

Source: patent US20020099180A1 (published 2002)
